Measurements from the domain aggregation screens of Martell et al. (2025).

Test: soluble fraction after stress (log2 fold change); higher = more stays soluble; pooled small domains, quantitative proteomics
Details: stress: 50 degC
In short: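 The measure of aggregation propensity here is the base-two logarithm of the fold change in the soluble amount of each protein after stress. A higher value means more of that protein stays in solution. Stress was applied at 50°C to pooled libraries of small protein domains, read out by high-throughput quantitative proteomics.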

In order of falling “soluble fraction (log2)” value:
1. HMAQSTALVNLAQAEINKRGLTQTEVQARLSEEGINVNSISPAEYPKYQKQILSILDQMQKEKQLSKEV  0.412
2. HMLGSVRTIRQVLDDGRLIVADGGGNPSVIRRSGALAHETFANGQRVIVDPSGRLALELLPD  0.314
3. HMEELELTIDGEMVGRIDKQLGHHFDQFSRSQIQHWIEDGHVLVNGKQVKPKYKLLVGDHVQIIPEEPQK  0.25
4. HMDEMEFQKYVDQNLKQKGISLTAEAKAELLLRLGGDTMLLHSAIEKLDLYGEKNLNLNDIKHLVSLNSDV  0.229
5. HMENNIRLSVPDTESGQRIDSYLAEQIPGLTRSAVQNLLAEQAVTIAGKAVKKNYKLLGGEDILVQLPEVR  0.216
6. HMKQTMIVVMEKDAPQSQIDDMVKRIEGLGLKAHTIVGTQRTVVAAIGEKREDTRESLAGSPGVAEVVPIL  0.181
7. HMQVSDTNTLEQFAKEVIEANPKAVEDYHQNPLAIGFLVGQLMKVSKGSANPQTGKEILEKLL  0.178
8. HMIPESVQGIEEFLATGALKGIGKKTAAAIVHKFGKDTLRIMEEEPERLAEVSGIGEKKAAAIGEAFALH  0.171
9. HMGDEPGAGYKWREDVLLRVMSEHGIDESARDDFVRHAVKFDDDDNLYLKKAEIIAAAEAWESSS  0.17
10. HMPPITIVPNDNGVPIIRSQTPEISTAVNVELKAAGINTHTIDGTSIRVPKAQAQVAQQIVSRVNTRFT  0.158
11. HMGTSFEDIDRAVKSVRKPETDEAEKLHAGKTFKDIAETELFQKLTESFAGISDRVNEVIDLYTARAAE  0.143
12. HMRQMSEELQSAKEALEDRRTQEKAVLLLMEHRNISNDEAHRLLRKLAMDQGKRLPEVARALVSMAGVL  0.132
13. HMVVLPPTEDAPEWAQVFDRLGRPESADGYKLPVPEGADPAFAKLASAKMHELGLSAKQGAALAAWWNEQA  0.108
14. HMIGVNMEKSTVEKFANELNLPIDLLLKQLESAGIKKTSGAEELLEADKSALLNYLQIEHGA  0.085
15. HMGHTVHAVPEAADRQRLDVFVGNLHPTISRAYIQKLSKEDQILVNGKPEKAGFKLRTGHSVSVPDMSE  0.0769
16. HMAPDYYALLGVPRNATTAEVRKAFRGKALEQHPDRGGDEESFRLLSKAYDVLSDSERRKYYDRTG  0.0767
17. HMLDYKSALQELLQAQRRSRPRYEVISTEGPDHERVFEVAVWLDNEELGRGKGRSKREAEHQAAQAALTQL  0.068
18. HMSEQVTMIDVEGKTETEAKKALEDLGLKVEITYESADAAAGTVIGQDVKAGSTVSEGSRVTLTVSGQ  0.0626
19. HMENNIPANIKALIISYVNQNYPGAVIHSIERNSNGTYDVEIYYNNREYDLLFDAQGNFISGNVDDQ  0.0611
20. HMSQSYHLADRGQSLGTLDYQAVLVGLATGRLSPDTLSWQEGEAGWVALRQRPEFASGVSAVASL  0.0116
21. HMSNMESLIGREATVIEMIPAEDVGRVKIDGDEWQAVLAREDDNEPRRDIQVGEKVIIVSYDSIILTVKTK  0.0115
22. HMPHSTTDFSVSPDERQIVYSTNLQGRYDLWALDHNQGYPYPLTKKGQMSFFIKHLPGSQMILTGFD  0.00171
23. HMEVPFRNAAIFKTRSGDYAIRASYDGVDLGIKPIEKSTARTYFQLTDVKDKESFLNMTARNQYESEIAGI  -0.00166
24. HMGPAAGVVEKYNLAHLSTGEMIRKEIAEGSDFGKMAAGIINKGELLSDEFVVALIENSIEHHKNVDGFLF  -0.00841
25. HMGPEISEDAKVVFDRLKNHDEILLNNFKSEFDLSNKKWDKIIKELRGNDLISIIKSEDGNLFIKP  -0.00901
26. HMNSISDSELKALIKNNYLKFLKRIASDEEIEYHFNQIKNKTILLDELDSIFQNSQEYKDLVEHNNKIQN  -0.0724
27. HMSQPYFELAAADMEALRNALSTIREIESVVLSGKIFHVEVREDLDPGTMNKLAFERGITLTHLVKKKN  -0.0763
28. HMDYKSKLQELVQTEKRTVEYKLVDESGPAHNKSFTFEVVISGIKYGSGTGASKKIAEQNAAKEALEKLA  -0.0871
29. HMLEEIDYPEEQLQLLFAWSRDHVQSTPPGLPVVDDHVWHILVRGYGATDQRTEAFALLASYAGFP  -0.0919
30. HMQNYLEFIGNELKALTSIPSPSGYTKDVAAYLMKTLSDMGYEPQLSNKGNVFVTIGGEGNPLVLAAHVD  -0.0984
31. HMNINVRNTGIKAVENNIINLSSDQRTFTWASNDRKLITVPFDENPYSALAAWFKTDEGIEVYQTIEKKL  -0.115
32. HMDNEIIEEEKITTLMITHNMRDAIKYGNRLIMLNEGRVIFDISGEEKKNLTVQELLEKFEK  -0.118
33. HMGASIQITVNNTPVMLKNKTHYTLVDVLDFYPFDLSKMGGTELYTAINGVKSGFTDPVHANDSIEIYWI  -0.148
34. HMGRLEVDLVVPYDKYEAMNVIRAEGRILKEDHQGDGAHLKIQINETALWKLKRMLGEGYGQ  -0.157
35. HMEISLEAKMAEVREQVRGLAGINFRTLLEMQASRSNIIVTFLAILELMKIGAIQIRQEEIFGEIIIDSRD  -0.222
36. HMRSVEVAAEPGMVLEDRQTGFVGAVVAVEKSGGTHLVVLEDRHGLRRGFPLGPGFWLEGRPVVLAPPP  -0.227
37. HMDIKEIIKNRRIELGLTLKEVATAVGVSEGTVSRWESGNITNMKRNKIAALAKTLQIPPTTI  -0.259
38. HMKELTELIEKIKLRRLELGLSYQELSDLTGINKSTLQRYETGFIKKVPINQVQIIAKALNVTPGYLMG  -0.28
39. HMIPNPMTDRELEVLGLLASGKTYKQVARALDLSQSTVRNHLHNVYHKLNVVDRAQAVIVSRENGW  -0.289
40. HMDGQGIRSITPEYYLSDSATKMPDASSSGWKSVPDDYIDKHYYWVRSKILWDDGTYTTTTPVL  -0.364
41. HMDYNSYGLTERELELVDYVLKGYSRKEMAEASGLKVNTIGSYMKKIYRKLNIHNRTELKERFI  -0.37
42. HMVDDRPVTGTTLIREWQGRAYEVIVQAGHFEFQGQRYQSLSAIAKVITGTVWNGWAFFGLR  -0.524
43. HMFMSKTAMVAIISEADKYGLFNIPEGLSVEKTADEIFEGHIEVDFDKLKNELDFVYKNEALEKQFQEN  -0.534
44. HMGVLSPRQSQILALVAQGLGNREIAERLHIAPTTARDHVQAIMRRLNVNSRAAAAVMGVKLGLI  -0.625
45. HMAAEFERKNGIVYFFHSSEKPHLNYPHVHARYGEDTISISLRDFTVIGSFSSKKKQKEAVEYVKNK  -0.662
46. HMKDTNENLMKMLALLIHAAKIDENYSDEEKELIVNFAEMSSKENLNREQILSIIKSAEEYE  -0.702
47. HMDGASLLDIDGDGKVTPTIDGLLLMRWQFGTRGAALIGGISFPAGALRTTVNAIELHMRRLSETT  -0.844
48. HMGGKWSMPIIYILSKGKMRFKELERSVEGINTRMLVKELKNMEANGIVTREVFPTVPPTVEYALT  -0.922
49. HMLSSREEKILNYLNEHQIITRKKAQELLETSQSTAGRVLKIMVDNGLIVQYGGSRSIWYELIK  -0.939
50. HMVRSLESESVYDRQRAYEIAYQLRTEERPYSFIATQLNKAGLRPQKAARYEWYSVQELLRSA  -0.956
51. HMVDVNLLKYYVMESGKSLTDVAAAIGVTPATLHRKMSGESDFYRKEMQDIASYLGLDRDTIDRIFF  -1.01
52. HMRRSKVMLESILDEIPQMGQARRAALLEQFGSVAALRKASLAEIAMTPGIGEKIAVIIFEYLQKSSH  -1.17
53. HMDVQPHIYLRKLDQFWPADLHSLILYTLDGRRLWSADSGNIPALPHRASSLVILEATWDNGQRTRRKQFL  -1.63
54. HMHDRRSGKVKWYSDRKGYGFIDLDGGEVFIHRSALIAFGALRLQAEDIITITVRETDRGLVVDQLFGIER  -2.03
55. HMDYGSISFINWSIEVLSVIKTRLDRGDKIIDEVSGEKYTASSFEKFVRKNFSSYIFSQVYAEDHKK  -2.55
